Laboratory results from article PMC2266796.

How the values were obtained:
Experiment in all cases: SEC-MALS; 100 ug purified Strep-tagged PfPdx1 on Superdex 200 10/30 with static light scattering (miniDAWN Tristar); 100 mM Tris-HCl pH 8.0, 150 mM NaCl, no amino acid added
[1] = target: PfPdx1 D26A (P. falciparum) (UniProt C6KT50)
[2] = target: PfPdx1 ERR (E136A/R139A/R140A) triple mutant (P. falciparum) (UniProt C6KT50)
[3] = target: PfPdx1 K83A (P. falciparum) (UniProt C6KT50)

Question: “PfPdx1 D26A (from UniProt C6KT50 1-301) (enzyme)” was tested. Which stoichiometry N [1] did it give?
Answer: The stoichiometry N was 12.

Question: “PfPdx1 ERR (E136A/R139A/R140A) triple mutant (from UniProt C6KT50 1-301) (enzyme)” was tested. Which stoichiometry N [2] did it give?
Answer: Its stoichiometry N is 12.

Question: With “PfPdx1 K83A (from UniProt C6KT50 1-301) (enzyme)” as the substance, how does the stoichiometry N [3] read?
Answer: The stoichiometry N was 12.
